Measured values: US10501734B2, “Compositions and methods of use thereof for making polypeptides with many instances of nonstandard amino acids” (Yale University, priority 2014, dated 2019)
Where two headings read alike, the source gives them in different places.

How the values were obtained:
tRNA = experiment: Aminoacylation assay (tRNA charging); type: biochemical
Procedure: Template plasmid containing tRNA gene was purified with the plasmid maxi kit (Qiagen), and 100 μg of plasmid was digested with BstNI (New England Biolabs). The BstNI digested template DNA was purified by phenol chloroform extraction, followed by ethanol precipitation and resolved in double distilled water. A His-tagged T7 RNA polymerase was purified over column of Ni-NTA resin according to manufacturer's instructions (Qiagen). The transcription reaction [40 mM Tris (pH 8); 4 mM each of UTP, CTP, GTP, and ATP at pH 7.0; 22 mM MgCl2; 2 mM spermidine; 10 mM DTT; 6 μg pyrophosphatase (Roche Applied Science); 60 μg/mL BstNI digested DNA template, approximately 0.2 mg/ml T7 RNA polymerase] was performed in 10 ml reaction volumes for overnight at 37° C. The tRNA was purified on 12% denaturing polyacrylamide gel containing 8 M urea and TBE buffer (90 mM Tris, 90 mM boric acid, 2 mM EDTA). UV shadowing illuminates the pure tRNA band, which is excised and extracted three times with 1M sodium acetate pH 5.3 at 4° C. The tRNA extractions were then ethanol precipitated, dissolved in RNase-free distilled water, pooled, and finally desalted using a Biospin 30 column (BioRad). The ratio of aminoacylated tRNA to total tRNA was determined to monitor reaction progress.
The tRNA was refolded by heating to 100° C. for 5 min and slow cooling to room temperature. At 65° C., MgC12, was added to a final concentration of 10 mM to aid folding. A His-tagged CCA adding enzyme was purified over column of Ni-NTA resin according to manufacturer's instructions (Qiagen). 16 μM folded tRNA in 50 mM Tris (pH 8.0), 20 mM MgCl2, 5 mM DTT and 50 μM NaPPi was incubated at room temperature for 1 hour with approximately 0.2 mg/ml CCA-adding enzyme and 1.6 μCi/μl of [α-32P]-labeled ATP (PerkinElmer). The sample was phenol/chloroform extracted and then passed over a Bio-spin 30 column (Bio-Rad) to remove excess ATP.
A 20 μl aminoacylation reaction contained the following components: 50 mM HEPES-KOH (pH 7.2), 25 mM KCl, 10 mM MgCl2, 5 mM DTT, 10 mM ATP, 25 μg/ml pyrophosphatase (Roche Applied Science), 2 mM amino acids. All plateau tRNA aminoacylation levels were determined at 37° C. according to the reactions conditions described above with 500 nM enzyme, 5 μM unlabeled tRNA plus 100 nM 32P-labeled tRNA. Time points were taken at 5 minutes, 20 minutes and 60 minutes by removing 2 μl aliquots from the reaction and immediately quenching the reaction into an ice-cold 3 μl quench solution [0.66 μg/μl nuclease P1 (Sigma) in 100 mM sodium citrate (pH 5.0)]. For each reaction, 2 μl of blank reaction mixture containing no enzymes was added to the quench solution as the start time point. The nuclease P1 mixture was then incubated at room temperature for 30 min and 1 μl aliquots were spotted on PEI-cellulose plates (Merck) and developed in running buffer containing 5% acetic acid and 100 mM ammonium acetate. Radioactive spots for AMP and AA-AMP (representing free tRNA and aminoacyl-tRNA, respectively) were separated and then visualized and quantified by phosphor imaging by a Molecular Dynamics Storm 860 phosphorimager (Amersham Biosciences). The ratio of aminoacylated tRNA to total tRNA was determined to monitor reaction progress.

GFP(3TAG) [1] = type: cell-based, E. coli; conditions: chromosomally integrated AARS; pAcF
Procedure: (§1) Liquid cell cultures of strains harboring chromosomally integrated OTSs and GFP reporter plasmids were inoculated from frozen stocks and grown to confluence overnight. Cultures were then inoculated at 1:20 dilution in LBmin media supplemented with 30 μg/ml kanamycin. Strains were inoculated by addition of 1:20 confluent cell culture (grown overnight) and allowed to grow at 34° C. to an OD600 of 0.5-0.8 in a shaking plate incubator at 650 r.p.m (˜3 h). AARS expression was then induced by the addition of 0.2% arabinose, GFP expression was induced by the addition of 60 ng/ul anhydrotetracycline, and the appropriate nsAA was added to a concentration of 1 mM. Cells were incubated at 34° C. for an additional 16 h. Liquid cell cultures of strains harboring plasmid-based OTSs and GFP or ELP-GFP reporter plasmids were inoculated from frozen stocks and grown to confluence overnight. Cultures were then inoculated at 1:20 dilution in 2×YT media supplemented with 30 μg/ml kanamycin and 20 μg/ml chloramphenicol. […] Cells were allowed to grow at 34° C. to an OD600 of 0.5-0.8 in a shaking plate incubator at 650 r.p.m (˜3 h), reporter protein expression was then induced by the addition of 60 ng/ul anhydrotetracycline, and cells were incubated at 34° C. for an additional 16 h.
(§2) For 384 well plate-based assays, fluorescence and OD600 were directly measured following expression. For 96 well plate-based assays, cells were centrifuged at 4,000 g for 4 min. Supernatant medium was removed and cells were resuspended in PBS. This process was repeated twice with PBS. GFP fluorescence was measured on a Biotek spectrophotometric plate reader using excitation and emission wavelengths of 395 and 509 nm, respectively). Fluorescence signals were normalized by dividing the fluorescence counts by the OD600 reading. The nsAAs used in this study were purchased from Sigma-Aldrich (St. Louis, Mo.), Chemlmpex (Wood Dale, Ill.), and Bachem (Torrance, Calif.). Solutions of nsAAs (50 mM) were made in water or 50 mM NaOH; these stock solutions were diluted 50- or 100-fold (to 1 mM final concentration) into medium used for bacterial growth.

GFP(3TAG) [2] = experiment: nsAA library screening, GFP(3TAG) fluorescence in 384 well plates; type: cell-based, E. coli; conditions: GFP(3TAG) production in the presence of pAcF, pAzF and 236 other nsAAs
Procedure: as §1
as §2, with “growth. […]” for “growth.”

[3] = ATP-PPi exchange assay (amino acid activation); type: biochemical
Procedure: A 25 μl ATP-PPi exchange reaction contained the following components: 100 mM HEPES-KOH (pH 7.5), 30 mM KCl, 10 mM MgCl2, 2 mM DTT, 2 mM KF, 2 mM NaPPi, 5 mM ATP, […], 2 μCi/μl of […] (PerkinElmer) and varied concentrations of amino acids (0.25, 0.5, 1.25, 2.5, 5, 10, and 20 mM, respectively). The reactions were incubated at 37° C. Time points were taken at 2 minutes, 5 minutes and 10 minutes by plotting 1 μl aliquots from the reaction immediately to the PEI-cellulose plates (Merck). For each reaction, 1 μl of blank reaction mixture containing no enzymes was set as background. The reaction mixtures were separated on the plates in 1 M urea and 1 M monopotassium phosphate. The plates were then scanned in a Molecular Dynamics Storm 860 phosphorimager (Amersham Biosciences). The ratio of ATP to PPi was determined to monitor reaction progress. The kinetic constants were derived from plotting initial velocity of a series of reactions that contained varied concentrations of amino acids. The data were analyzed by GraFit 5.0 (Erithacus Software).

[4] = nsAA pAcF, relative to progenitor pAcFRS
[5] = nsAA pAzF, relative to progenitor pAcFRS
[6] = amino acid Tyrosine, relative to pAcFRS

| Molecule | Km (tRNA; nsAA pAcF) [µM] | kcat (tRNA; nsAA pAcF) | Fold change (tRNA; [4]) | Km (tRNA; nsAA pAzF) [µM] | kcat (tRNA; nsAA pAzF) | Fold change (tRNA; [5]) | higher GFP(3TAG) production compared with the progenitor enzyme (GFP(3TAG) [1]) [fold] | nsAA specificity (polyspecificity) (GFP(3TAG) [2]) | Km ([3]; nsAA pAcF) [µM] | kcat ([3]; nsAA pAcF) | Fold change [3, 4] | Km ([3]; nsAA pAzF) [µM] | kcat ([3]; nsAA pAzF) | Fold change [3, 5] | Km (tRNA; amino acid Tyrosine) [µM] | kcat (tRNA; amino acid Tyrosine) | Fold change (tRNA; [6]) | kcat ([3]; amino acid Tyrosine) | Km ([3]; amino acid Tyrosine, read-out: Km, nsAA) [µM] | Fold change [3, 6] |
| --- | --- | --- | --- | --- | --- | --- | --- | --- | --- | --- | --- | --- | --- | --- | --- | --- | --- | --- | --- | --- |
| pAcFRS.1: pAcFRS variant A167D, SEQ ID NO: 2 (protein) MDEFEMIKRNTSEIISEEELREVLKKDEKSALIGFEPSGKIHLGHYLQIKKMIDLQNAGFDIIILLADLHAYLNQKGELDEIRKIGDYNKKVFEAMGLKAKYVYGSEFQLDKDYTLNVYRLALKTTLKRARRSMELIAREDENPKVAEVIYPIMQVNGCHYRGVDVDVGGMEQRKIHMLARELLPKKVVCIHNPVLTGLDGEGKMSSSKGNFIAVDDSPEEIRAKIKKAYCPAGVVEGNPIMEIAKYFLEYPLTIKRPEKFGGDLTVNSYEELESLFKNKELHPMRLKNAVAEELIKILEPIRKRL | 36 ± 7 | 1.21 ± 0.24 ×10^−3 s^−1 | 4.60 | 31 ± 9 | 0.65 ± 0.20 ×10^−3 s^−1 | 3.38 | ~8 | polyspecifity for at least pAcF, pAzF, StyA, 4IF, 4BrF, 4ClF, 4MeF, 4Cf3F, MeY, 4NO2F, 4BuF, BuY, 2NaA, PheF | 2160 ± 720 | 6.84 ± 0.64 ×10^−2 s^−1 | 4.64 | 1740 ± 390 | 3.50 ± 0.20 ×10^−2 s^−1 | 1.37 |  |  |  |  |  |  |
| WTmjYRS: wild-type M. jannaschii TyrRS, the parent AARS of pAcFRS (protein, UniProt Q57834 1-306, looked up) Tyrosine--tRNA ligase: MDEFEMIKRNTSEIISEEELREVLKKDEKSAYIGFEPSGKIHLGHYLQIKKMIDLQNAGFDIIILLADLHAYLNQKGELDEIRKIGDYNKKVFEAMGLKAKYVYGSEFQLDKDYTLNVYRLALKTTLKRARRSMELIAREDENPKVAEVIYPIMQVNDIHYLGVDVAVGGMEQRKIHMLARELLPKKVVCIHNPVLTGLDGEGKMSSSKGNFIAVDDSPEEIRAKIKKAYCPAGVVEGNPIMEIAKYFLEYPLTIKRPEKFGGDLTVNSYEELESLFKNKELHPMDLKNAVAEELIKILEPIRKRL |  |  |  |  |  |  |  |  |  |  |  |  |  |  | 23 ± 3 | 130 ± 22 ×10^−3 s^−1 | 774 | 52.2 ± 4.1 ×10^−2 s^−1 | 76 ± 30 | 1007 |
| pAcFRS.t2: pAcFRS variant R257C, F261E, SEQ ID NO: 4 (protein) MDEFEMIKRNTSEIISEEELREVLKKDEKSALIGFEPSGKIHLGHYLQIKKMIDLQNAGFDIIILLADLHAYLNQKGELDEIRKIGDYNKKVFEAMGLKAKYVYGSEFQLDKDYTLNVYRLALKTTLKRARRSMELIAREDENPKVAEVIYPIMQVNGCHYRGVDVAVGGMEQRKIHMLARELLPKKVVCIHNPVLTGLDGEGKMSSSKGNFIAVDDSPEEIRAKIKKAYCPAGVVEGNPIMEIAKYFLEYPLTIKCPEKEGGDLTVNSYEELESLFKNKELHPMRLKNAVAEELIKILEPIRKRL | 29 ± 3 | 0.27 ± 0.07 ×10^−3 s^−1 | 1.27 |  |  |  | ~1.5 | polyspecifity for at least pAcF, pAzF, StyA | 8590 ± 3230 | 6.67 ± 1.27 ×10^−2 s^−1 | 1.14 |  |  |  |  |  |  |  |  |  |
| pAcFRS.t1: pAcFRS variant R257G, SEQ ID NO: 3 (protein) MDEFEMIKRNTSEIISEEELREVLKKDEKSALIGFEPSGKIHLGHYLQIKKMIDLQNAGFDIIILLADLHAYLNQKGELDEIRKIGDYNKKVFEAMGLKAKYVYGSEFQLDKDYTLNVYRLALKTTLKRARRSMELIAREDENPKVAEVIYPIMQVNGCHYRGVDVAVGGMEQRKIHMLARELLPKKVVCIHNPVLTGLDGEGKMSSSKGNFIAVDDSPEEIRAKIKKAYCPAGVVEGNPIMEIAKYFLEYPLTIKGPEKFGGDLTVNSYEELESLFKNKELHPMRLKNAVAEELIKILEPIRKRL | 17 ± 3 | 0.22 ± 0.02 ×10^−3 s^−1 | 1.77 |  |  |  | ~1.5 | polyspecifity for at least pAc.F, pAzF, StyA | 9170 ± 3670 | 6.92 ± 1.27 ×10^−2 s^−1 | 1.11 |  |  |  |  |  |  |  |  |  |
